The target in assay [1] is T1, human TfR ECD (His-tagged) (human, UniProt P02786 89-760).
T1 construct: also called hTfR-ECD-6His; his-tagged hTfR-ECD
Put plainly: SPR (Biacore 8K), 37 C; TfR ECD amine-coupled to CM4 chip, TBP as analyte; multi-cycle kinetics, 2-state fit; n = 3. The protocol: (§1) Target human and cynomolgous TfR ECD's were immobilized on a CM4 chip (Cytiva P/N 29104989) using standard NHS-EDC amine coupling. The TfR binding proteins were prepared at a final concentration of 0.3, 0.1, 0.033, 0.01, 0.0033, 0.001, 0.00033, 0.0001 μM respectively by dilution of stock solution into running buffer.
(§2) Binding analysis was performed in a multi-cycle kinetics manner. Each analysis cycle consists of (1) injection of the lowest to highest concentration proteins over all Fc at 50 μL/min for 140 seconds followed by return to buffer flow for 400 seconds to monitor dissociation phase; (2) regeneration of chip surfaces with injection of 3M magnesium chloride, for 30 seconds at 100 μL/min over all cells; and (3) equilibration of chip surfaces with a 50 μL (30-sec) injection of HBS-EP+. Data were processed using standard double-referencing and fit to a 2-state binding model using Biacore 8K Evaluation software, to determine the association rate (kₒₙ, M⁻¹s⁻¹ units), dissociation rate (koff, s⁻¹ units), and Rₘₐₓ (RU units). The equilibrium dissociation constant (KD) is calculated from the relationship KD=koff/kₒₙ, and is in molar units.

The target of the next assay is T2, cynomolgus TfR ECD (cynomolgus).
T2 construct: extracellular domain; amine-coupled in the 37 C assay; also called Cyno TfR; His-tagged cynomolgus TfR ECD
Described as above. The protocol:
as §1, §2

The next assay addresses T3, human TfR (cell-bound) (human, UniProt P02786 1-760).
T3 construct: Endogenous receptor on hCMEC-D3 cells (stated); also called hTFR; human transferrin receptor on hCMEC-D3 cells
Put plainly: flow cytometry on hCMEC-D3 cells (endogenous human TfR), on ice, PE-labeled secondary. The protocol:
(§3) Human endothelial line hCMEC-D3 (EMD Millipore SC066), endogenously expressing human TfR and MDCK cell line (ATCC CCL-34), engineered to express cynomolgus TfR were utilized to evaluate antibody/protein binding to cell-bound TfR. Cells were grown and maintained at submaximal confluence and detached from cultureware using Accutase cell detachment solution, washed, and allocated at 50000 cells per well for assessment of binding. Cells were treated with a viability stain then subsequently incubated with titrated concentrations of TfR binding proteins on ice. Cells were washed and binding of test antibodies or proteins was detected using a PE-labeled secondary reagent. Cells were then washed and read on the same day using a BioRad ZE5 cytometer. Analysis was performed post-acquisition in FlowJo, analyzing fluorescence of single, viable, non-debris events. EC50 values were derived by plotting geometric median PE intensity values across a given sample titration and fitting a sigmoidal (4PL) response curve in GraphPad Prism 8.3.0.

For assay [2], the target named is T4, cynomolgus TfR (on MDCK cells) (cynomolgus, UniProt H9EXL1 1-760 (rhesus entry)).
T4 construct: whole, on cells; also called Cyno MDCK
Kind of assay: flow cytometry on MDCK cells engineered to express cynomolgus TfR, on ice, PE-labeled secondary. The protocol:
as §3

The target of assay [3] is T1, human TfR ECD (His-tagged). Put plainly: SPR (Biacore 8K), 37 C; TfR ECD amine-coupled to CM4 chip, TBP as analyte; multi-cycle kinetics, 2-state fit; n = 3; conjugated to MAPT siRNA (dsRNA No. 39 in Table 11b). The protocol:
as §1, §2
On the technique in general: Surface plasmon resonance follows binding to a sensor surface in real time, without labels.

Numbering of substitutions follows the chain as printed. Names may count otherwise.

Among the data in patent US20240059784A1 (Eli Lilly, published 2024) are Kd and EC50 values, retold here.

The Kd is the free concentration of one partner at which half of the binding sites on the other are occupied at equilibrium, for simple one-to-one binding. High values mean lower affinity, low ones higher affinity. A word on the EC50: it is the concentration needed to bring the measured effect to its halfway point.

B1: TBP14-MAPT siRNA (dsRNA No. 38 in Table 11b) (antibody)
heavy: EVQLVESGGGLVKPGGSLRLSCVASGFTFSSYSMNWVRQAPGKGLEWVSSISSSSSYIYYADSVKGRFTISRDNAKNSLYLQMNSLRAEDTAVYYCARRHGYSNSDAFDNWGQGTLVTVSSASTKGPSVFPLAPCSRSTSESTAALGCLVKDYFPEPVTVSWNSGALTSGVHTFPAVLQSSGLYSLSSVVTVPSSSLGTKTYTCNVDHKPSNTKVDKRVESKYGPPCPPCPAPEAAGGPSVFLFPPKPKDTLMISRTPEVTCVVVDVSQEDPEVQFNWYVDGVEVHNAKTKPREEQFNSTYRVVSVLTVLHQDWLNGKEYKCKVSNKGLPSSIEKTISKAKGQPREPQVSTLPPSQEEMTKNQVSLMCLVYGFYPSDICVEWESNGQPENNYKTTPPVLDSDGSFFLYSVLTVDKSRWQEGNVFSCSVMHEALHNHYTQKSLSLSLG
light: DIQMTQSPSAMSASVGDRVTITCRASQGISHYLVWFQQKPGKVPKRLIYAASSLQSGVPSRFSGSGSGTEFTLTISSLQPEDFATYYCLQHNSYPWTFGQGTKVEIKRTVAAPSVFIFPPSDEQLKSGTASVVCLLNNFYPREAKVQWKVDNALQSGNSQESVTEQDSKDSTYSLSSTLTLSKADYEKHKVYACEVTHQGLSSPVTKSFNRGEC
chain: ESKYGPPCPPCPAPEAAGGPSVFLFPPKPKDTLMISRTPEVTCVVVDVSQEDPEVQFNWYVDGVEVHNAKTKPREEQFNSTYRVVSVLTVLHQDWLNGKEYKCKVSNKGLPSSIEKTISKAKGQPREPQVYTLPPSQGDMTKNQVQLTCLVKGFYPSDICVEWESNGQPENNYKTTPPVLDSDGSFFLASRLTVDKSRWQEGNVFSCSVMHEALHNHYTQKSLSLSLG
modifications: MAPT siRNA (dsRNA No. 38) conjugated through a linker at the engineered cysteine (A378C, EU numbering, by the name in Table 6b)
notes: Protein-siRNA conjugate of TBP14; also called TBP14-MAPT siRNA conjugate
Take B1: the figures for the Kd (in assay [1]; with cynomolgus TfR ECD) were 258 nM and 448 nM, respectively. Further, the EC50 in the assay with human TfR (cell-bound) was 764 nM; in assay [2], 453 nM.

B2: TBP15-MAPT siRNA (dsRNA No. 39 in Table 11b) (antibody)
heavy: B1 heavy with S128C, C379A
light: B1 light
chain: B1 chain with C160A
modifications: MAPT siRNA (dsRNA No. 39) conjugated through a linker at the engineered cysteine (S124C, EU numbering, by the name in Table 6b)
notes: Protein-siRNA conjugate of TBP15
Regarding B2, the values for the Kd (with cynomolgus TfR ECD; in assay [3]) were 199 nM and 213 nM, respectively. Besides, the EC50 with human TfR (cell-bound) was 75.6 nM; in assay [2], 57.1 nM.
